Measured values published in patent US8822645B2, “Prostaglandin E2 dual variable domain immunoglobulins and uses thereof” (AbbVie Inc., priority 2008, dated 2014).

Columns and labels:
[1] = system: C57BL6/N mice, LPS/D-Galactosamine-induced lethality; experiment: LPS-D-galactosamine-induced lethality; format: in vivo, mouse; settings: 12 mg/kg IP
Protocol: Saline alone was used as a negative control. Another group received […] 8C11-1E10, an anti-mouse TNF monoclonal antibody, as a positive control.
At the time of challenge, the mice were injected i.p. with 500 μL dose volume of saline containing 100 ng/mouse LPS (Sigma L4130, lot 095K4056, St. Louis, Mo.) and 20 mg/mouse D-Galactosamine (Sigma G-0500, lot 048K1547, St. Louis, Mo.). The mice were then monitored for lethality twice a day for 48 hours. At 48 hours the remaining surviving mice were sacrificed and bled for plasma antibody levels.

[2] = system: PGE2 / human EP4 receptor in HEK293 Gα16 cells; experiment: EP4 bioassay (Ca++ flux, neutralization of PGE2); format: cell-based; settings: PGE2 VD in N-terminal position; EP4 bioassay, Ca++ flux; read-out: N-terminal VD PGE2 Neutralization EC50
Protocol: The ability of anti-PGE2 antibodies and anti-PGE2 containing DVD-Ig molecules to inhibit the cellular response of PGE2 was determined in a Ca++ flux assay in HEK293 Gα16 cells stably transfected with human EP4 receptor. Cells were plated in black/clear poly-D-lysine plates, (Corning #3667, Corning, N.Y.) and incubated with Ca++-sensitive dye (Molecular Devices) for 90 minutes. Stock PGE2 (in 200 proof ethanol) was diluted with FLIPR buffer (containing 1×HBSS (Invitrogen, Carlsbad, Calif.), 20 mM HEPES (Invitrogen, Carlsbad, Calif.), 0.1% BSA (Sigma, St. Louis, Mo.) and 2.5 mM Probenecid (Sigma, St. Louis, Mo.)). Anti-PGE2 antibodies, DVD-Ig molecules or isotype matched control antibodies were also pre-diluted in FLIPR buffer. 25 μl of PGE2 or pre-incubated PGE2/antibody mixture or pre-incubated PGE2/DVD-Ig molecule mixture was added to the wells pre-plated with cells. A dose response of PGE2 was done by a serial titration of PGE2 and was determined using FLIPR1 or Tetra (Molecular Devices). EC50 was determined using GraphPad Prism 5 (GraftPad Software, La Jolla, Calif.). […] Ca++ flux was monitored using FLIPR1 and data was analyzed using GraphPad Prism 5.
The ability of anti-PGE2 antibodies and anti-PGE2 containing DVD-Ig molecules to inhibit the cellular response of PGE2 was determined in a Ca++ flux assay using stably transfected human EP4 in HEK293 Gα16 cells. Cells were plated in black/clear Poly-D-Lysine plates, (Corning #3667) and incubated with Ca++-sensitive dye (Molecular Devices) for 90 minutes. Stock PGE2 (in 200 proof ethanol) was diluted with FLIPR buffer (containing 1×HBSS, 20 mM HEPES, 0.1% BSA and 2.5 mM Probenecid). Anti-PGE2 antibodies, DVD-Ig molecules or isotype matched control antibodies were also pre-diluted in FLIPR buffer. 25 μl of PGE2 or pre-incubated PGE2/antibody mixture or pre-incubated PGE2/DVD-Ig molecule mixture was added to the wells pre-plated with cells. A dose response of PGE2 was done by a serial titration of PGE2 and was determined using FLIPR1 or Tetra (Molecular Devices). EC50 was determined using GraphPad Prism 5. […] Ca++ flux was monitored using FLIPR1 and data was analyzed using GraphPad Prism 5.

[3] = PGE2-biotinamide ELISA (PGE2 binding); settings: PGE2 VD in N-terminal position, read-out: Direct Bind ELISA N-terminal VD EC50
Protocol: (§1) Enzyme linked immunosorbent assays to screen for anti-PGE2 antibodies or anti-PGE2 containing DVD-Ig molecules that bind prostaglandin E2 were performed as follows. ELISA plates (Costar 3369, Corning, N.Y.) were coated with 50 μl of anti-host Fc IgG (Sigma, St. Louis, Mo.) at 2 μg/ml in PBS (Invitrogen Carlsbad, Calif.). Following an overnight incubation at 4° C., the plate was blocked with 200 μl Superblock (Pierce #37535, Rockford, Ill.). The IgG or DVD-Ig containing samples were diluted to 1 μg/ml in Assay Buffer (10% Superblock in PBS containing 0.05% Surfactamps (Pierce #37535, Rockford, Ill.) and incubated on the plate at 50 μl/well for 1 hour at room temperature. Following the incubation, plates were washed four times with TTBS (Tween-Tris Buffered Solution). For PGE2 binding, PGE2-biotinamide (Cayman Chemicals, Ann Arbor, Mich.) was diluted to 30 nM and serially diluted in Assay Buffer. The titration curve was added to each IgG or DVD-Ig sample at a volume of 50 μl/well and incubated for 1 hour at room temperature. The plates were washed as previously described and 50 μl/well of 1:5000 dilution of streptavidin polyhrp40 (Fitzgerald Industries, Concord, Mass.) in Assay Buffer was added and incubated for 45 minutes at room temperature. A final wash step was performed and the plates were developed using a single step TMB system (Sigma #T8665, St. Louis, Mo.) and 2N H2SO4. Plates were read at 450 nm on a Molecular Devices Spectramax plate reader (Sunnyvale, Calif.). EC50 was determined using GraphPad Prism 5 (GraphPad Software, La Jolla, Calif.) (FIG. 2).
as §1, with “ELISA” for “Enzyme linked immunosorbent assays to screen for anti-PGE2 antibodies or anti-PGE2 containing DVD-Ig molecules that bind prostaglandin E2 were performed as follows. ELISA”, “(Invitrogen,” for “(Invitrogen”, “IgG” for “IgG or DVD-Ig”, “Solution).” for “Solution). For PGE2 binding,”, “Calif.).” for “Calif.) (FIG. 2).”

[4] = Size exclusion chromatography, percent monomer of parent antibodies and DVD-Ig constructs; format: physicochemical
Protocol: Antibodies were diluted to 2.5 mg/mL with water and […] is analyzed on a Shimadzu HPLC system using a TSK gel G3000 SWXL column (Tosoh Bioscience, cat#k5539-05k). […] The HPLC system operating conditions are the following: […]

[5] = system: stable cell lines overexpressing a cell-surface antigen of interest or human tumor cell lines; experiment: Flow cytometry (FACS) binding to cell surface antigen; format: cell-based; settings: IL-6R VD in C-terminal position; 2 μg/mL
Protocol: Stable cell lines overexpressing cell-surface antigen of interest or human tumor cell lines were harvested from tissue culture flasks and resuspended in phosphate buffered saline (PBS) containing 5% fetal calf serum (PBS/FCS). Prior to staining, human tumor cells were incubated on ice with human IgG at 200 μg/ml in PBS/FCS. 1-5×10^5 cells were incubated with antibody or DVD-Ig (1-2 μg/mL) in PBS/FCS for 30-60 minutes on ice. […] After 30 minutes incubation on ice, cells were washed twice and resuspended in PBS/FCS. Fluorescence was measured using a Becton Dickinson FACSCalibur (Becton Dickinson, San Jose, Calif.).
Stable cell lines overexpressing a cell-surface antigen of interest or human tumor cell lines were harvested from tissue culture flasks and resuspended in phosphate buffered saline (PBS) containing 5% fetal bovine serum (PBS/FBS). Prior to staining, human tumor cells were incubated on ice with (100 μl) human IgG at 5 μg/ml in PBS/FCS. 1-5×10^5 cells were incubated with antibody or DVD-Ig (2 μg/mL) in PBS/FBS for 30-60 minutes on ice. […] After 30 minutes incubation on ice, cells were washed twice and resuspended in PBS/FBS. Fluorescence was measured using a Becton Dickinson FACSCalibur (Becton Dickinson, San Jose, Calif.).
The geometric mean is the n root of the multiplication product of n fluorescent signals (a1×a2×a3 . . . an). […]

B1: 8C11: murine anti-mouse TNFα monoclonal antibody clone (antibody, V domains shown)
VH: EFQLQQSGPELVKPGASVRISCKASGYSFTDYNMNWVKQSNGKSLEWVGVINPNYGSSTYNQKFKGKATLTVDQSSSTAYMQLNSLTSEDSAVYYCARKWGQLGRGFFDVWGTGTTVTVSS
VL: QIVLSQSPAILSASPGEKVTMTCRASSSVSYMHWFQQKPGSSPKPWIYATSNLASGVPARFSGSGSGTSYSLTISRVEAEDAATYYCQQWSSSPLTFGAGTKLELKR
[1]
  % Survival: 100%
  Mean Plasma Ab Concentration: 65 ± 4.0 µg/mL

B2: DVD151: DVD-Ig construct listed in Table 4 (antibody)
VH: EVQLVQSGAEVKKPGASVKVSCKASGYTFTKYWLGWVRQAPGQGLEWMGDIYPGYDYTHYNEKFKDRVTLTTDTSTSTAYMELRSLRSDDTAVYYCARSDGSSTYWGQGTLVTVSSASTKGPEVQLQESGPGLVRPSQTLSLTCTVSGYSITSDHAWSWVRQPPGRGLEWIGYISYSGITTYNPSLKSRVTMLRDTSKNQFSLRLSSVTAADTAVYYCARSLARTTAMDYWGQGSLVTVSS
VL: DVLMTQTPLSLPVTPGEPASISCTSSQNIVHSNGNTYLEWYLQKPGQSPQLLIYKVSNRFSGVPDRFSGSGSGTDFTLKISRVEAEDVGVYYCFQVSHVPYTFGGGTKVEIKRTVAAPDIQMTQSPSSLSASVGDRVTITCRASQDISSYLNWYQQKPGKAPKLLIYYTSRLHSGVPSRFSGSGSGTDFTFTISSLQPEDIATYYCQQGNTLPYTFGQGTKVEIKR
[2]
  EC50: 0.036 nM
[3]
  EC50: 1.52 nM
[4]
  % Monomer (purity): 92.7%
[5]
  FACS Geometric Mean C-terminal: 0.21
